# T1: biotinylated extracellular domains of human CD123 with C-terminal Fc tag and Avi tag (bio.hCD123-Fc(kih)-Avi) (human, UniProt P26951 19-303, biotinylated with BirA-GST (Avi tag))
# T1 construct: Bought from Evitria; the second Fc chain and the number of CD123 arms are not described; also called biotinylated hCD123; recombinant human CD123 target; not shown: Avi tag
# T1 sequence: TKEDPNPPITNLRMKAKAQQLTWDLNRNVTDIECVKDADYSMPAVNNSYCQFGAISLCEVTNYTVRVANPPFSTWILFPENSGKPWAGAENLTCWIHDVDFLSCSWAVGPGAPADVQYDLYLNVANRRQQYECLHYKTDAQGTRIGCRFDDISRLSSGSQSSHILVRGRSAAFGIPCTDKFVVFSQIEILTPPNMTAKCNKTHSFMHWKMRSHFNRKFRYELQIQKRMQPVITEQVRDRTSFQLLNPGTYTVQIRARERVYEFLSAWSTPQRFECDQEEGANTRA
# T2: truncated CD123 target (D2/D3 domains), D2-D3-hCD123 (human, UniProt P26951 101-305)
# T2 construct: domain: D2/D3; Bought from Evitria; Detected with hIgG-d2, so it probably carries an Fc tag; also called truncated target (D2-D3-hCD123)
# T2 sequence (looked up): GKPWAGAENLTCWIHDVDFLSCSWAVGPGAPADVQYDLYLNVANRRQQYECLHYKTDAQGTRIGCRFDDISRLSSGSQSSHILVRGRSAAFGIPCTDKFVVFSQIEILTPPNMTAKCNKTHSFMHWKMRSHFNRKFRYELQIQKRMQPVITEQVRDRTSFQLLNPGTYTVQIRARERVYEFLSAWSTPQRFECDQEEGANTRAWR
# B1: DARPin® protein #20 (non-binding DARPin molecule) (designed binder)
# chain: DLGKKLLEAARAGQDDEVRELLKAGADVNAKDKDGYTPLHLAAREGHLEIVEVLLKAGADVNAKDKDGYTPLHLAAREGHLEIVEVLLKAGADVNAQDKSGKTPADLAADAGHEDIAEVLQKAA
# notes: Control
# Key:
# [1] = target: T1, biotinylated extracellular domains of …; test: HTRF, full-length biotinylated hCD123-Fc(kih)-Avi
# Source text: (§1) The CD123 epitope bound by CD123-specific ankyrin repeat proteins of the invention was investigated using truncated CD123 target protein as well as competition ELISA and HTRF against the benchmark control molecule flotetuzumab-similar (CD3-CD123 specific DART®, purchased from Evitria) and the natural ligand IL-3 (purchased by Peprotech), First, full-length (NTD/D2/D3 domains) and truncated (D2/D3 domains) CD123 targets (purchased from Evitria) were applied in an HTRF binding assay in which they were incubated with DARPin® protein #1 and binding was detected by using either the HTRF reagents Anti 6His-d2 and Streptavidin-Tb for full-length CD123 or hIgG-d2 and anti-His-Tb for truncated CD123. […] The excitation of the reaction was measured at 340 nm and emission at 665 nm and the background at 340 nM and 620 nM respectively. […] Binding was detected by using either the HTRF reagents Anti 6His-d2 and Streptavidin-Tb for full-length CD123 or hIgG-d2 and anti-His-Tb for truncated CD123 target.
# [2] = target: T2, truncated CD123 target (D2/D3 domains), …; test: HTRF, purified DARPin protein with truncated D2-D3-hCD123, hIgG-d2 and anti-His-Tb
# Source text: as §1
binder,measurement,setting,value
B1,binding result,[1],no binding
same,binding result,[2],no binding

# — patent US20240150475A1 (Molecular Partners, published 2024)
